Results published in US7867500B2, “Cofactor that modulates steroid receptor activities” (The United States of America as represented by the …, priority 2004, dated 2011).

T1: PRs (B-form) (Homo sapiens, UniProt P06401)
T1 construct: expressed in transfected cells; host or cells: CV-1
T1 sequence (P06401 1-933): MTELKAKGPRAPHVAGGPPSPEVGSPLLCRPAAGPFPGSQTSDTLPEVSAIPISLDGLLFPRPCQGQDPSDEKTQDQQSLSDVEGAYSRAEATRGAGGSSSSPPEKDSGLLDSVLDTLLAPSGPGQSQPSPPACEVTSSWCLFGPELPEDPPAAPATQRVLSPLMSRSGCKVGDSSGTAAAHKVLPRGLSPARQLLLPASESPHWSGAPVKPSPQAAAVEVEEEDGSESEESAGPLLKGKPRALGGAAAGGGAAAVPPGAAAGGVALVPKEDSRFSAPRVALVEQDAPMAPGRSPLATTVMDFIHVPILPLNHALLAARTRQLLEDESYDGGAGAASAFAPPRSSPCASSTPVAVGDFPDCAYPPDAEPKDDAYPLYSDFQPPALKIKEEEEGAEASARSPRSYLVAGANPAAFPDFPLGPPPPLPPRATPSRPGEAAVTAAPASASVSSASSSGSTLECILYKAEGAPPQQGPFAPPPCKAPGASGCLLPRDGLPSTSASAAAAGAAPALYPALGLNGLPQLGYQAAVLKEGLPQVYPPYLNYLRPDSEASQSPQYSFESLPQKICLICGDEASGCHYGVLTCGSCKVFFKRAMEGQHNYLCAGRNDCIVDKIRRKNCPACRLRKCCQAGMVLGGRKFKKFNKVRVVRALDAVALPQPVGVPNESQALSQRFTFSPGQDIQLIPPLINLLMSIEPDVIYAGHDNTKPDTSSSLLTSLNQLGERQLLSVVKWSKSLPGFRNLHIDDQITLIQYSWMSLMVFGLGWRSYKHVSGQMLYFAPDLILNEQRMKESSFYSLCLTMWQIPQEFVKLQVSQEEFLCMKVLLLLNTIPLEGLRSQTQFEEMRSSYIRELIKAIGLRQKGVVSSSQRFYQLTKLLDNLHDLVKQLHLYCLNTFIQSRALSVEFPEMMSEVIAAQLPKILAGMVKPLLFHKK
T1 sequence (Q6EMB2 838-1281 F1267S partner limits assumed): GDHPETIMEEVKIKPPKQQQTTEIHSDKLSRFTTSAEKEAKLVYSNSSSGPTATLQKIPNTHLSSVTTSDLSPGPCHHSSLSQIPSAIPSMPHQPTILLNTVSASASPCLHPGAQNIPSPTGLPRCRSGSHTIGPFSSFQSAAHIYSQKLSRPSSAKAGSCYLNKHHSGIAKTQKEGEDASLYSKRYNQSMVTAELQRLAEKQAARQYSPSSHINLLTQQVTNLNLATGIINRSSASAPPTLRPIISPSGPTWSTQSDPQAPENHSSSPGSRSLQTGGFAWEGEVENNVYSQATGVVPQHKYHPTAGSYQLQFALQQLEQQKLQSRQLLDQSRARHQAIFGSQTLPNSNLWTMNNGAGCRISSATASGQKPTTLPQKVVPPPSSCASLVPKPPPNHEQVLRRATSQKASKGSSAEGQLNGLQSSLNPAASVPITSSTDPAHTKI


Columns and labels:
Format in all cases: cell-based
PRs (B-form) = molecular target: T1, PRs (B-form); assay: Mammalian two-hybrid assay with VP16 full length receptor: PR; conditions: 20 nM R5020
Procedure: FIG. 6C1-3 illustrate the association of STAMP with assorted steroid/nuclear receptors, including glucocorticoid receptors (GRs), progesterone receptors (PRs), androgen receptors (ARs), estrogen receptors (ER α or β), PPARγ2 receptors, thyroid receptor beta (TR), and retinoid (α) receptors (RAR α or RXR α). Triplicate samples of CV-1 cells were transfected (as described for FIG. 6B) with GAL, or GAL fused to TIF2.4 or STAMP834C, plus VP16 fused to the indicated full length receptors and incubated with the appropriate steroid (1 μM Dex, 20 nM R5020, 1 nM R1881, 0.1 μM triiodothyronine, or 1 μM estradiol, roziglitazone, or 9-cis-retinoic acid). The average relative luciferase activities of 2-3 experiments±S.E.M. were then plotted. FIG. 6C1 illustrates the effects of STAMP association upon GR, PR and AR induced expression. FIG. 6C2 illustrates the effects of STAMP association upon ERα, ERβ and PPARγ2 induced expression. FIG. 6C3 illustrates the effects of STAMP association upon TR, RARα and RXRα induced expression.
These assays were conducted as described (He et al., 2002). […]

TIF2.4m123 = assay: Mammalian two-hybrid assay in CV-1 cells with TIF2.4m123; conditions: equal amounts of protein
Description: FIG. 2A-2C illustrate the isolation and characterization of the partial clone of the protein that binds to TIF2.4. […] Five clones were obtained but only two (clones I and V) contained a protein that was needed for colony growth in the presence of the pSos/TIF2.4 fusion protein. After initial screening, only clone I (also named 6-6CL1) was selected for further investigation. FIG. 2B and FIG. 2C illustrate the selectivity of 6-6CL1 interactions with TIF2.4 in mammalian two-hybrid assays. Triplicate samples of CV-1 cells in 24-well plates were transiently transfected with the indicated GAL-DBD and VP16-AD plasmids along with the GAL4-regulated reporter, pFRLuc. The relative luciferase activity, normalized for the activity of the internal Renilla control, was determined and plotted as the average±S.D. The much lower activity of GAL/TIF2.4m123 was previously shown not to be due to unequal levels of protein expression (He et al., 2002). Similar results were obtained in three additional experiments. […] Triplicate samples of CV-1 cells in 24-well plates were analyzed as in (B&C) after being transiently transfected with GAL±6-6CL1 constructs and pFRLuc reporter along with VP16 chimeras of SRC-1 (FIG. 2D) or TIF2 (FIG. 2E) segments. Similar results for SRC-1 were obtained in two additional experiments (ND=not determined). […]

CBP = molecular target: T2, CBP (Homo sapiens, UniProt Q92793); assay: Mammalian two-hybrid assay with CBP; conditions: data not shown
T2 construct: expressed in transfected cells; host or cells: CV-1 (the same two-hybrid assay)
T2 sequence (Q92793 whole entry): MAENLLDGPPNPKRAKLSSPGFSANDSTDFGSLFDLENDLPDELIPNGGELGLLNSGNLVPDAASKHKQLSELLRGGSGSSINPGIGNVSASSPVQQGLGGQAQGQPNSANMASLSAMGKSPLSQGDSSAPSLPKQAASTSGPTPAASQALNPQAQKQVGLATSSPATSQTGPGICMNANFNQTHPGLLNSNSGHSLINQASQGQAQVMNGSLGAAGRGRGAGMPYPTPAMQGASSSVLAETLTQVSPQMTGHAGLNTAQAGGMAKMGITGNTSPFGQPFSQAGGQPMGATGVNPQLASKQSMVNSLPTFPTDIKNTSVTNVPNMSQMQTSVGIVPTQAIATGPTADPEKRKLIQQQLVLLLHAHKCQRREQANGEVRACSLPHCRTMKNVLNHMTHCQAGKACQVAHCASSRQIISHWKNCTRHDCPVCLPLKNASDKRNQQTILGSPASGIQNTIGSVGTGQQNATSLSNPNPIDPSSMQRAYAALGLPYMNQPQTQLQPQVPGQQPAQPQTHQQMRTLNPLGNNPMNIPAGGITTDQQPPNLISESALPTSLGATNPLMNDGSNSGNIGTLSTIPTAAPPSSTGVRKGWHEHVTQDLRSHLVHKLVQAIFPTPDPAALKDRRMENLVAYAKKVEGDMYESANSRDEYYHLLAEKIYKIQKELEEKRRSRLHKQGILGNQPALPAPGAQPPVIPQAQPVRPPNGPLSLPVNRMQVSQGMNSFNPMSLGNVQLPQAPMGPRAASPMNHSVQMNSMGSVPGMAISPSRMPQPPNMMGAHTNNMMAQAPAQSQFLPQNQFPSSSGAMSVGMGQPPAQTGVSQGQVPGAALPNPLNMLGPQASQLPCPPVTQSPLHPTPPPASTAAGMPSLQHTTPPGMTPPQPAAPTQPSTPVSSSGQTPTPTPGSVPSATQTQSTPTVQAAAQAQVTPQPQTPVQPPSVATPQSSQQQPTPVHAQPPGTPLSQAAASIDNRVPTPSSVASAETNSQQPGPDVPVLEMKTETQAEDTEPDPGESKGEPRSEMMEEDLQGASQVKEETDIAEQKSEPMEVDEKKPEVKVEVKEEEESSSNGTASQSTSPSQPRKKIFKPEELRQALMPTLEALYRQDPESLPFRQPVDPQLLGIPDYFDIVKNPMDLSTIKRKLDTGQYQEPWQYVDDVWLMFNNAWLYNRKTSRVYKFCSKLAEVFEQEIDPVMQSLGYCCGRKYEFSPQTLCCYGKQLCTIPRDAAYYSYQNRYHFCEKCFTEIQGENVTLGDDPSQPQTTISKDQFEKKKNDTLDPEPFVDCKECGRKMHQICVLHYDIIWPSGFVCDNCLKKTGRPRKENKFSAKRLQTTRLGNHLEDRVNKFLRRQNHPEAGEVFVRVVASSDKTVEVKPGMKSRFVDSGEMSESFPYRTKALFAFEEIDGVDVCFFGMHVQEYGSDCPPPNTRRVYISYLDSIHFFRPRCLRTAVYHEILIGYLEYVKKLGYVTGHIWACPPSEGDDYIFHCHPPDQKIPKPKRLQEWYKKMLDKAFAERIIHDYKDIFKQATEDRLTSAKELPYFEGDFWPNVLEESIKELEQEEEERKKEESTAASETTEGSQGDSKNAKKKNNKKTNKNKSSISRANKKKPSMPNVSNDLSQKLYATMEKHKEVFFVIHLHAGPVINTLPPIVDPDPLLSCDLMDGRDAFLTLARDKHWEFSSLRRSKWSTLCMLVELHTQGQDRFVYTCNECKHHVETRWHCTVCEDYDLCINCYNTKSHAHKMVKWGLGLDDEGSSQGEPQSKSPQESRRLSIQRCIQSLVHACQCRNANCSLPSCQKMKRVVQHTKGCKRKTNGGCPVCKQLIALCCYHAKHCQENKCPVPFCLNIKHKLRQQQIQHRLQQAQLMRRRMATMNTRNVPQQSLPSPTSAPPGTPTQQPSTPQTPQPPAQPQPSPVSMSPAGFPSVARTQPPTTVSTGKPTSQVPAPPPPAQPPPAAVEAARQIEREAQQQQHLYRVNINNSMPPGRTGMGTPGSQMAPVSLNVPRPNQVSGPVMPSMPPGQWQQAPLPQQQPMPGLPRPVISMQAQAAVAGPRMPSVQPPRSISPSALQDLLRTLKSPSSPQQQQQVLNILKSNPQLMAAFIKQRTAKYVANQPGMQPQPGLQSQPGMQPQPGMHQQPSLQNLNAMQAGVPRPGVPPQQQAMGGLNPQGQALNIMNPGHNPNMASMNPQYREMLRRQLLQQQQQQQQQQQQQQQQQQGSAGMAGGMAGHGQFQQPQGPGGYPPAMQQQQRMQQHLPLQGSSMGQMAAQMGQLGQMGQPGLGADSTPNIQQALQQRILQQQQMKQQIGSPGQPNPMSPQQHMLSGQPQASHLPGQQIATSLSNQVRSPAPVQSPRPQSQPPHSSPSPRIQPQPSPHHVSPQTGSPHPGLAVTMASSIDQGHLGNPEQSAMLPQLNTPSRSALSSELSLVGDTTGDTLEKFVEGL
Procedure: These assays were conducted as described (He et al., 2002). In particular, the recommended procedure for the Mammalian Matchmaker two-hybrid assay kit (Clontech) was modified slightly by changing from a chloramphenicol acetyltransferase reporter to a Luciferase Reporter pFRLuc (Stratagene), which is under the control of five repeats of the upstream activating sequence for the binding of GAL4.

interaction with agonist-bound, full length PR (PRs (B-form))	association with CBP (CBP)	Molecule	interaction with TIF2.4m123 (TIF2.4m123)
interacted	–	STAMP834C: STAMP fragment amino acids 834-1277, receptor interaction domain (RID) (protein) GDHPETIMEEVKIKPPKQQQTTEIHSDKLSRFTTSAEKEAKLVYSNSSSGPTATLQKIPNTHLSSVTTSDLSPGPCHHSSLSQIPSAIPSMPHQPTILLNTVSASASPCLHPGAQNIPSPTGLPRCRSGSHTIGPFSSFQSAAHIYSQKLSRPSSAKAGSCYLNKHHSGIAKTQKEGEDASLYSKRYNQSMVTAELQRLAEKQAARQYSPSSHINLLTQQVTNLNLATGIINRSSASAPPTLRPIISPSGPTWSTQSDPQAPENHSSSPGSRSLQTGGFAWEGEVENNVYSQATGVVPQHKYHPTAGSYQLQFALQQLEQQKLQSRQLLDQSRARHQAIFGSQTLPNSNLWTMNNGAGCRISSATASGQKPTTLPQKVVPPPSSCASLVPKPPPNHEQVLRRATSQKASKGSSAEGQLNGLQSSLNPAASVPITSSTDPAHTKI	–
–	negligible association	6-6CL1: STAMP fragment amino acids 623-834, coactivator interaction domain (CID) (protein) ENTPKENSMKVREWNNKGGHCCKLETQELEPKFNLMQILQDNGNLSKMQARIAFSAYLQHVQIRLMKDSGGQTFSASWAAKEDEQMELVVRFLKRASNNLQHSLRMVLPSRRLALLERRRILAHQLGDFIIVYNKETEQMAEKKSKKKVEEEEEDGVNMENFQEFIRQASEAELEEVLTFYTQKNKSASVFLGTHSKISKNNNNYSDSGAKG	did not interact
